Kd data for one molecule are collected here from article PMC9595563 (2022).

For the experiment, the target named is SARS-CoV-2 spike RBD-Fc recombinant protein (ELISA) (SARS-CoV-2, UniProt P0DTC2). Nature of the experiment: ELISA.

B1: LRRC15-His (natural protein)
chain: YHGCPSECTCSRASQVECTGARIVAVPTPLPWNAMSLQILNTHITELNESPFLNISALIALRIEKNELSRITPGAFRNLGSLRYLSLANNKLQVLPIGLFQGLDSLESLLLSSNQLLQIQPAHFSQCSNLKELQLHGNHLEYIPDGAFDHLVGLTKLNLGKNSLTHISPRVFQHLGNLQVLRLYENRLTDIPMGTFDGLVNLQELALQQNQIGLLSPGLFHNNHNLQRLYLSNNHISQLPPSVFMQLPQLNRLTLFGNSLKELSPGIFGPMPNLRELWLYDNHISSLPDNVFSNLRQLQVLILSRNQISFISPGAFNGLTELRELSLHTNALQDLDGNVFRMLANLQNISLQNNRLRQLPGNIFANVNGLMAIQLQNNQLENLPLGIFDHLGKLCELRLYDNPWRCDSDILPLRNWLLLNQPRLGTDTVPVCFSPANVRGQSLIIINVNVAVPSVHVPEVPSYPETPWYPDTPSYPDTTSVSSTTELTSPVEDYTDLTTIQVTDDRSVWGMTQAQSG
For B1, the Kd amounted to 165 nM.
